Laboratory results reported in article PMC6262872, “DARPins recognize mTFP1 as novel reagents for in vitro and in vivo protein manipulations” (Biology Open, 2018).

Target: T1, monomeric teal fluorescent protein 1 (mTFP1), N-terminally hexa-His-SBP-tagged
T1 construct: mTFP1, engineered monomeric teal fluorescent protein (Ai et al., 2006); PDB 2HQK is the cited mTFP1 structure; also called SBP-tagged mTFP1; source: E. coli BL21(DE3), purified (Ni-NTA)
Test: fluorescence polarisation; fluorescence anisotropy; constant 15 nM mTFP1 titrated with a dilution series of DARPin; non-linear fit
Details: both partners purified

B1: DARPin 1238_G01 (N-terminal His8, C-terminal FLAG) (designed binder)
chain: GSDLGKKLLEAARAGQDDEVRILMANGADVNAEDWMGATPLHLAAQSGHLEIVEVLLKTGADVNAHDAFGWTPLHLAASQGHLEIVEVLLKAGADVNATDMVGRTPLHLAARRGHLEIVEVLLKHGADVNAQDKFGKTPFDLAIDNGNEDIAEVLQKAAKLN
modifications: N-terminal MRGS-His8 and C-terminal FLAG tags left out; the GP cloning residues of the crystal construct are also left out
Kd: ~88 nM
